Columns and labels:
Assay type in all cases: cell-based
[1] = test system: Wnt induced calcium release; assay: Wnt induced [Ca2+]i release after preincubation with thapsigargin or membrane potential regulating compounds; conditions: preincubation 5 min; Wnt 9B 0.1 μg/ml as example; CsCl 5 mM; CdCl2 1 mM; TEA 10 mM; Amiodarone 75 μM; Tolbutamide 1 mM; Isradipine 100 μM; Nifedipine 1 mM; Minoxidil 25 μM; Atenolol 37.5 μM; Propanolol 50 μM; Furosemide 150 μM
Experimental: The imaging protocol was developed in the inventor's laboratory and has been described in detail, elsewhere (Wang at al., (2010) PLoS ONE 5, e10456). Briefly, 100000-200000 PC3, MCF7, 253J or Cos 7 cells were plated on 35 mm FluoroDish (WPI) and grown for 48 h; calcium indicators Fluo-4 (Invitrogen) and FuraRed (Invitrogen) at 1 ng/ml were added to FluoroDish containing only 1 ml of culture medium and incubated for 15-20 min at 37° C. The culture medium was removed and washed (×2) and replaced with 1 ml PBS. Live cell calcium Imaging was performed on an Olympus FluoView FV 1000 confocal microscope (Olympus KeyMed) equipped with a 20× dry objective (numerical aperture=0.75). Calcium indicators were excited with an argon laser line (488 nm) and emissions recorded in the green channel (500-560 nm) for Fluo-4 and red channel (600-700 nm) for FuraRed after addition of vehicle control (PBS) or Wnt X (30-600 ng/ml). Images were acquired every 1.1 or 2.2 seconds for up to 600-800s; image and data acquisition was performed using FluoView 1000 software (Olympus, UK). Fluorescent intensity was measured and data exported as a tab delimited file for further analysis using a spreadsheet. All imaging experiments were performed in duplicate; intracellular calcium at 100 ng/ml was measured in at least 3-12 different passages (passage numbers 25 to 37) of cell line for each Wnt ligand. Wnt 11 was tested in at least 5 different passages at 3 different concentrations. […]
To measure the effect of changes in membrane potential on [Ca^2+]i release using the protocol described above, in some experiments, external solution (PBS) was substituted with varying concentrations of KCl. In other experiments chemical inhibitors of K^+ channels such as TEA, CsCl or tolbutamide (Sigma-Aldrich) were added to the cells grown on FluoroDish, at 37° C., at least 5 min prior to addition of Wnt ligands.
(§1) After image acquisition, regions of interest (ROI) were drawn over individual PC3 cells (up to 25) in a single frame and calcium intensity measurements were made using FluoView 1000 software (Olympus, UK). The measurements were exported as a tab delimited file into a spreadsheet for further analysis and Fluo4/Fura Red ratios were calculated. The waveform, a product of the ratio of Fluo4 and FuraRed over the period of measurement was used to measure the kinetics of the activation of [Ca^2+]i release in PC3 cells, in response to different Wnt ligands. The time constants (rise, dwell and fall times) were calculated by first fitting the Fluo4/FuraRed ratio to a single Gaussian function (Origin Lab Corp., MA); a lower (10%) and upper (90%) amplitude thresholding method was then used to calculate the time constants (s). Statistical significance was calculated using Mann Whitney U test.

[2] = test system: β-catenin translocation to the nucleus; assay: β-catenin immunocytochemistry and nuclear co-localization analysis, PC3; conditions: PC3 cells; for Pearson coefficient of nuclear co-localization of β-catenin: Wnt 100 ng/ml vs control, p<0.001 Mann Whitney test
Experimental: Immunostaining was performed in two different laboratories, independently with the experimenter blind to the identity of the treatment. Either cells used in FluoroDish, post [Ca^2+]i experiments using dyes (see above) or grown in 8 well chamber glass slides (Lab Tek II, Nunc) were used. For Wnt ligand treatment, the culture medium replaced with PBS (without calcium) at 37° C. The experiments were replicated for Wnt ligand or vehicle control as described for [Ca^2+]i measurements. Briefly, Wnt ligands were added and chamber slides incubated at 37° C. for up to 20 min. Chamber wells were washed 3× with 0.5 ml PBS and cells were fixed with 0.5 ml 4% formalin for 30 min at 4° C. Cells were washed 3× with ice cold PBS and stored in 0.5 ml PBS at 4° C. for immunostaining. In some experiments PC3 cells were treated with thaspsigargin as described above.
For immunostaining cells were washed twice for 5 minutes in TBST (20 mM Tris pH 7.4, 0.9% NaCl, 0.1% Tween 20, Sigma). Cells were then incubated in 20% normal goat serum (NGS)/TBST for 30 min at room temperature, the chambers were drained and cells were incubated with mouse anti-β-catenin (ab22656, Abcam, UK) at 1:500 dilution in NGS/TBST overnight at 4° C. Following two further 5 min washes in TBST sections were incubated in goat anti-mouse peroxidase fab (Abcam, UK) at 1:500 dilution for 30 min at room temperature. Following a further two 5 min washes in TBST cells were incubated with tyramide Cy3 (Perkin Elmer) for 10 min at room temperature. Sections were washed twice for 5 min in TBST before nuclear counterstaining with DAPI. After a final two 5 min washes, the chambers were removed and cover slip placed on slides using Permafluor (Thermo Shandon).
Fluorescence immunocytochemical staining for β-catenin expression in cell lines was imaged using Olympus Fluoview 1000 Confocal Microscope (Olympus KeyMed) mounted on an Olympus IX81 inverted microscope using a 20×0.7 NA or 40×1.0 NA dry objective with a zoom of ×3.4′,6-diamidino-2-phenylindole (DAPI, nuclear counterstain) was excited at 405 nm with an emission of 415-500 nm; Cy3 (β-catenin label) signal was excited at 561 nm with an emission spectrum between 570-670 nm. […] Z-stacks of at least 3 fields per sample were imaged and saved in Olympus FV (OIF or OIB) file format.
Nuclear co-localization of β-catenin was calculated by importing FV files for untreated, control or treated cells, into colocalization plugin of Fiji software (http://fiji.sc/Fiji) for Cy3 (β-catenin) and DAPI (nuclear) signals. Pearson co-relation of colocalization were tabulated for 25-90 cells (from 2-5 different passages of cells) using ROI analysis. Statistical significance between untreated and treated cells was calculated using Mann Whitney U test.

[3] = test system: PC3 prostate cancer cell line; assay: Live [Ca2+]i imaging (Fluo4/FuraRed ratio) after addition of Wnt ligand; conditions: PC3 cells; for intracellular calcium mobilization ([Ca2+]i release) in response to Wnt ligand: 100 ng/ml Wnt ligand peptide, ratio of Fluo4/Fura Red; for dependence of time constants (dwell time) on Wnt ligand concentration / co-operativity: three concentrations of each Wnt ligand, first-order fit; for rise and fall time of [Ca2+]i release: Wnt peptide 100 ng/ml
Experimental: The imaging protocol was developed in the inventor's laboratory and has been described in detail, elsewhere (Wang at al., (2010) PLoS ONE 5, e10456). Briefly, 100000-200000 PC3, MCF7, 253J or Cos 7 cells were plated on 35 mm FluoroDish (WPI) and grown for 48 h; calcium indicators Fluo-4 (Invitrogen) and FuraRed (Invitrogen) at 1 ng/ml were added to FluoroDish containing only 1 ml of culture medium and incubated for 15-20 min at 37° C. The culture medium was removed and washed (×2) and replaced with 1 ml PBS. Live cell calcium Imaging was performed on an Olympus FluoView FV 1000 confocal microscope (Olympus KeyMed) equipped with a 20× dry objective (numerical aperture=0.75). Calcium indicators were excited with an argon laser line (488 nm) and emissions recorded in the green channel (500-560 nm) for Fluo-4 and red channel (600-700 nm) for FuraRed after addition of vehicle control (PBS) or Wnt X (30-600 ng/ml). Images were acquired every 1.1 or 2.2 seconds for up to 600-800s; image and data acquisition was performed using FluoView 1000 software (Olympus, UK). Fluorescent intensity was measured and data exported as a tab delimited file for further analysis using a spreadsheet. All imaging experiments were performed in duplicate; intracellular calcium at 100 ng/ml was measured in at least 3-12 different passages (passage numbers 25 to 37) of cell line for each Wnt ligand. Wnt 11 was tested in at least 5 different passages at 3 different concentrations. To test if the Wnt activated calcium release was from [Ca^2+]i stores, in some cases PC3 cells, loaded with calcium dyes, were incubated with 1-5 μM of thapsigargin (Sigma, UK), resuspended in dimethyl sulfoxide (DMSO), for 20 min at 37° C., prior to addition of Wnt ligand and live calcium imaging (as described above).
The experiments were performed using 35 mm, glass bottom, FluoroDish containing 1 ml PBS, at 37° C., to which ligands were added at desired concentration. In a static, non-superfusing assay system there is a lag time before the start of a response, in this case an increase in the intensity of the Fluo4 signal due to the release of free calcium. To measure the diffusion constant under these conditions we used Pontamine Sky Blue (Sigma Aldridge), which fluoresces in the red spectrum with 488 nm excitation, using standard practice for adding ligands; the diffusion constant was measured to be 23.3±2.1 μm·s^−1 (means±S.E.M, n=8). The calcium wave, in response to Wnt ligands, travelled across the FluoroDish.
as §1

Row | Molecule | Wnt ligand induced calcium release after preincubation with MPRC (FIG. 16) [1] | intracellular calcium mobilization ([Ca2+]i release) in response to Wnt ligand [3] | dependence of time constants (dwell time) on Wnt ligand concentration / co-operativity [3] | other results
1 | CCCCc1oc2ccccc2c1C(=O)c1cc(I)c(OCCN(CC)CC)c(I)c1 [Amiodarone] | inhibited |  |  | 
2 | CC(C)NCC(O)COc1ccc(CC(N)=O)cc1 (stereo not shown) [Atenolol] | inhibited |  |  | 
3 | [Cl][Cd][Cl] [CdCl2] | inhibited |  |  | 
4 | COC(=O)C1=C(C)NC(C)=C(C(=O)OC(C)C)C1c1cccc2nonc12 (stereo not shown) [Isradipine] | inhibited |  |  | 
5 | C[C@@H]1O[C@@H](O[C@H]2C[C@@H](O)[C@]3(CO)[C@H]4[C@H](O)C[C@]5(C)[C@@H](C6=CC(=O)OC6)CC[C@]5(O)[C@@H]4CC[C@]3(O)C2)[C@H](O)[C@H](O)[C@H]1O [Ouabain, reference compound] |  |  |  | β-catenin translocation to the nucleus after pretreatment with Ouabain (FIG. 21) ([2]; Wnt5A treated): increases
6 | Wnt11: Recombinant Wnt peptide purchased from R&D systems (protein, UniProt O96014 25-354, looked up) Protein Wnt-11: IKWLALSKTPSALALNQTQHCKQLEGLVSAQVQLCRSNLELMHTVVHAAREVMKACRRAFADMRWNCSSIELAPNYLLDLERGTRESAFVYALSAAAISHAIARACTSGDLPGCSCGPVPGEPPGPGNRWGGCADNLSYGLLMGAKFSDAPMKVKKTGSQANKLMRLHNSEVGRQALRASLEMKCKCHGVSGSCSIRTCWKGLQELQDVAADLKTRYLSATKVVHRPMGTRKHLVPKDLDIRPVKDSELVYLQSSPDFCMKNEKVGSHGTQDRQCNKTSNGSDSCDLMCCGRGYNPYTDRVVERCHCKYHWCCYVTCRRCERTVERYVCK |  | did not mobilize [Ca^2+]i |  | 
7 | Wnt7A: Recombinant Wnt peptide purchased from R&D systems (protein, UniProt O00755 32-349, looked up) Protein Wnt-7a: LGASIICNKIPGLAPRQRAICQSRPDAIIVIGEGSQMGLDECQFQFRNGRWNCSALGERTVFGKELKVGSREAAFTYAIIAAGVAHAITAACTQGNLSDCGCDKEKQGQYHRDEGWKWGGCSADIRYGIGFAKVFVDAREIKQNARTLMNLHNNEAGRKILEENMKLECKCHGVSGSCTTKTCWTTLPQFRELGYVLKDKYNEAVHVEPVRASRNKRPTFLKIKKPLSYRKPMDTDLVYIEKSPNYCEEDPVTGSVGTQGRACNKTAPQASGCDLMCCGRGYNTHQYARVWQCNCKFHWCCYVKCNTCSERTEMYTCK |  | induce intracellular calcium mobilization | no difference | 
8 | Wnt4: Recombinant Wnt peptide purchased from R&D systems (protein, UniProt P56705 23-351, looked up) Protein Wnt-4: SNWLYLAKLSSVGSISEEETCEKLKGLIQRQVQMCKRNLEVMDSVRRGAQLAIEECQYQFRNRRWNCSTLDSLPVFGKVVTQGTREAAFVYAISSAGVAFAVTRACSSGELEKCGCDRTVHGVSPQGFQWSGCSDNIAYGVAFSQSFVDVRERSKGASSSRALMNLHNNEAGRKAILTHMRVECKCHGVSGSCEVKTCWRAVPPFRQVGHALKEKFDGATEVEPRRVGSSRALVPRNAQFKPHTDEDLVYLEPSPDFCEQDMRSGVLGTRGRTCNKTSKAIDGCELLCCGRGFHTAQVELAERCSCKFHWCCFVKCRQCQRLVELHTCR |  | induce intracellular calcium mobilization | negative co-operativity | Pearson coefficient of nuclear co-localization of β-catenin [2]: significant increase; rise and fall time of [Ca2+]i release [3]: slowest
9 | Wnt3A: Recombinant Wnt peptide purchased from R&D systems (protein, UniProt P56704 19-352, looked up) Protein Wnt-3a: SYPIWWSLAVGPQYSSLGSQPILCASIPGLVPKQLRFCRNYVEIMPSVAEGIKIGIQECQHQFRGRRWNCTTVHDSLAIFGPVLDKATRESAFVHAIASAGVAFAVTRSCAEGTAAICGCSSRHQGSPGKGWKWGGCSEDIEFGGMVSREFADARENRPDARSAMNRHNNEAGRQAIASHMHLKCKCHGLSGSCEVKTCWWSQPDFRAIGDFLKDKYDSASEMVVEKHRESRGWVETLRPRYTYFKVPTERDLVYYEASPNFCEPNPETGSFGTRDRTCNVSSHGIDGCDLLCCGRGHNARAERRREKCRCVFHWCCYVSCQECTRVYDVHTCK |  | induce intracellular calcium mobilization | negative co-operativity | Pearson coefficient of nuclear co-localization of β-catenin [2]: significant increase; rise and fall time of [Ca2+]i release [3]: shortest
